Numbering of substitutions follows the chain as printed.

B1: LK-RB1-44 (antibody, human IgG4 S228P, kappa, V domains shown)
VH: QVQLQQSGTELAKPGASVKLSCKASGYTFTNYWMHWIKQRPGQGLEWIGYVHPTSDYTKYNQKFKDKATLTADKSSSTAYMQLNSLTYEDSAVYYCTRSSLYDTNYVFDSWGQGTTLTVSS
VL: DILLTQSPAILSVSPGERVSFSCRASQSIGRSIHWFQQRTNGSPSLLIKYASESISGIPSRFSGGGSGTDFTLSISNVESEDIADYYCQQSNNWPFTFGSGTKLEIKR
B2: LK-RB1-45 (antibody, human IgG4 S228P, kappa, V domains shown)
VH: B1 VH with K13R, Y32F, H52N
VL: B1 VL with F36Y, S45R
B3: LK-RB1-51 (antibody, human IgG4 S228P, kappa, V domains shown)
VH: QVQIQQSGAELVKPGASVKLSCKASGYTFTEFPIHWIKQRSGQGLEWIGWFYPGSDNMNYNEKFKDKATLTADKSSSTVYMELSRLTSEDSAVYFCARHENAYFYAMDYWGQGTSVTVSS
VL: ENVLTQSPAIMSASLGEKVTMSCRASSSVNYMYWYQQKSDASPKIWIYYTSNLAPGVPARFSGSGSGNSYSLTISSMEGEDAATYYCQQFTSSPFTFGTGTKLEIKR
B4: LK-RB1-50 (antibody, human IgG4 S228P, kappa, V domains shown)
VH: QVQLKQSGPGLVQPSQSLSITCTVSGFSLTSYGVHWVRQSPGKGLEWLGVIWRGGNTDYNAPFVSRLSITKDNSQSQVFFKMNSLEADDTAIYYCAKNSLDVYSSWYFDVWGTGTTVTVSS
VL: QIVLSQSPAILSAFPGEKVTMTCRASSSVSFMHWYQQKPGSSPKPWIYATSNLASGVPARFSGSGSGTSYSLTISRVEAEDAATYYCQQWSSNPLTFGAGTKLELKR
B5: LK-RB1-56 (antibody, human IgG4 S228P, kappa, V domains shown)
VH: QVQLKQSGPGLVQPSQSLSITCSVSGFSLTNYGVHWVRQSPGKGLEWLGVIWRGGSTDNNAAFMSRLSITKDNSKSQVFFKMNSLQADDTAIYYCAKNSDFYGSSWYFDVWGTGTTVTVSS
VL: B4 VL with F14S, S92R, L95P
B6: LK-RB1-58 (antibody, human IgG4 S228P, kappa, V domains shown)
VH: B5 VH with S23T, N31T, N59Y, K81R, I92R, D100L, F101Y
VL: B4 VL with F14S, L95P, A99G, L105I
B7: LK-RB1-3 (antibody, human IgG4 S228P, kappa, V domains shown)
VH: QVQLQQPGAELVKPGTSVNLSCKASGYTFTSYWIHWVKQRPGRGLEWIGRINPYSSGTRYNEKFKNKATLTVDKPSSTAYMQLTSLTSEDSAVYYCARFDGAPDYFDFWGQGTTLTVSS
VL: DIVMTQSQKFMPTSVGDRVNVTCKASQNVGINVAWYQQKLGQSPKALIYSASYRYSGVPDRFTGSGSGTDFTLTINSVQSEDLADYFCQQYNNYPFTFGSGTKLEIKR
B8: LK-RB1-2 (antibody, human IgG4 S228P, kappa, V domains shown)
VH: QIQLVQSGPELKKPGETVKISCKASGYTFTTYGVSWVKQAPGKGLKWMGWINTYSGVSTYSDDFKGRFAFSLETSASTAYLQIINLKNEDAATYFCSRRRRTYDGYLSFDYWGQGTTLTVSS
VL: DIQMTQSPGSLSASVGETVTITCGASENIYGALNWFQRKPGKSPQLLIYGATNLADGMSSRFSGSGSGRQYSLQISSLRPDDVATYYCQNVLTTPWTFGGGTKVEIKR
B9: LK-RB1-4 (antibody, human IgG4 S228P, kappa, V domains shown)
VH: QVQLQQPGAELVKPGASVKLPCKTSGYTFTSYWMHWVKQRPGRGLEWIGRIDPHYSGTKYNEKFKNKATMTVDTPSSTAYMQLSSLTSEDSAVYYCARFDGDPYYFDYWGPGTTLTVSS
VL: DIVMTQSQKFMSTSVGDRVSVTCKASQNVGTNVAWYKQKAGQSPKAVIYSASYRYSGVPDRFTGSGSGTDFTLSISNVQSEDLAEYFCQQYNNNPFTFGSGTKLEIKR
B10: LK-RB1-38 (antibody, human IgG4 S228P, kappa, V domains shown)
VH: DVQLQESGPGLVQPSQSLSLTCSVTGYSITSGYQWNWIRQLPGNKLEWMAYISFDGSNNYNPSLKNRISITRDTSKNQFFLKLKSVTTEDTATYYCARRDYDGVAYWGQGTLVTVSA
VL: EIVLTQSPATLSVTPGDRVSLSCRASQNISNYLHWYQQKSHGSPRLIIKYASQSISGIPSRFSGSGSGTDFTLSINSVETEDFGMYFCQQSNSWPLTFGAGTKLELKR
B11: LK-RB1-40 (antibody, human IgG4 S228P, kappa, V domains shown)
VH: B10 VH
VL: DVLMTQTPLSLPVSLGDQASISCRSSQSIVHSNGNTYLEWYLQKPGQSPKLLIYKVSNRFSGVPDRFSGSGSGTDFTLKISRVEAEDLGVYYCFQGSHVPWTFGGGTKLEIKR
B12: LK-RB1-8 (antibody, human IgG4 S228P, kappa, V domains shown)
VH: QVQLQQSGAELVRPGTSVKVSCKASGYAFSNYLIEWVKQRPGQGLEWIGVINPGSDGSTYNEKFKGKATLTADKSSNTAYMQLSSLTSEDSAVYFCARGDYGRSYGMDYWGQGTSVTVSS
VL: DIVMTQSQKFMSTTVGDRVSITCKASQNVGTAVVWYQQKPGQSPKLLIYSASNRYTGVPDRFTGSGSGTDFTLTISNMQSEDLADYFCQQYSSYMYTFGGGTKLEIKR
B13: LK-RB1-5 (antibody, human IgG4 S228P, kappa, V domains shown)
VH: QVQLQQPGAELVKPGASVKLSCKASGYTFTDFWIHWVKQRPGQGLEWIGMIHPNSGSTNFNEKFRAKATLTVDKSSSTAYMRLSSLTSEDSAVYYCARSGDGYSNPMDYWGQGTSVTVSS
VL: QIVLSQSPAILSASPGEKVTLTCRASSSVSYMHWYQQKPGSSPKPWIYATSNLASGVPVRFSGSGSGTSYSLTISRMQTEDAATYYCQQWRRSPYTFGGGTKLEIKR
B14: LK-RB1-1 (antibody, human IgG4 S228P, kappa, V domains shown)
VH: QIQLVQSGPELKKPGETVKISCKASGYSFTNFGMSWVKQAPGKALKWMGWINTYSGVPTYADDFKGRFAFSLETSANTAYLQINNLKNEDSATYFCARRRRTFDGYLCFDYWGQGATLTVSS
VL: QLVLTQSSSASFSLGASAKLTCTLSSQHSTYSIDWYQQQPLKPPKYVMELKTDGSHRTGDGIPDRFSGSSSGADRYLSISNIQPEDEAIYICGVGDTIKEQFVYVFGGGTKVTVLR
B15: LK-RB1-46 (antibody, human IgG4 S228P, kappa, V domains shown)
VH: EVQLQQSGPELVKPGASVKISCKTSGYTFTDYYMNWVKQSHGKSLEWIGDIYPINGDISYNQKFKGKATLTVDKSSSTVYMEIRSLTYEDSAVYYCARLAQTTSGGFDYWGQGTTLTVSS
VL: DIVLTQSPTSLAVSLGQRAIISCKASQSVSFAGTSLMHWYQQKPGQQPKLLIYRASNLKAGVPTRFSGSGSRTDFTLNIHPVEEDDAATYYCQQSREYPMYTFGGGTKLEIKR
B16: LK-RB1-6 (antibody, human IgG4 S228P, kappa, V domains shown)
VH: QIQLVQSGPELKKPGETVKISCKASGYTFTTYGMSWVKQAPGKDLKWMGWINTFSGVPACADDFQGRFDFSAEPSDSTAHLQINNLKNEDTATYFCARRSYYGSRGWYFDVWGTGTTVTVSS
VL: DIVMTQSHKFMSTSVGDRVSITCTASEDVNTAVAWYQQKPGQSPKLLIYWASTRHTGVPDRFTGSGSGTDYTLTISSVQTEDLALYYCQQHYNTPYTFGGGTKLEIKR
B17: LK-RB1-7 (antibody, human IgG4 S228P, kappa, V domains shown)
VH: B16 VH
VL: DVQMIQSPSSLSASLGDIVTMTCQASQDTTINLNWFQQKPGKVPKLLIYGASNLEDGVPSRFSGSSFGTDFTLTISSLEDEDMATYFCLQHTYLPRTFGGGTKLEIRR
B18: LK-RB1-37 (antibody, human IgG4 S228P, kappa, V domains shown)
VH: QVQLQQPGAELVKPGASVKLSCKASGYTFTSYWMHWVKQRPGRGPEWIGRIDPNSGYARYNEKFKNKATLTADKPSSTADMHLSSLTSEDSAVYYCTRSFITTAEWFFDVWGTGTTVTVSS
VL: DILLTQSPAILSVSPGERVSFSCRASQSIGTSIHWYQQRRNGSPRLLIKYTSESISGIPSRFSGSGSGTDFTLSINSVESEDIADYYCQQSNSWPHTFGGGTKLELKR

T2 sequence (Q8N423 22-597): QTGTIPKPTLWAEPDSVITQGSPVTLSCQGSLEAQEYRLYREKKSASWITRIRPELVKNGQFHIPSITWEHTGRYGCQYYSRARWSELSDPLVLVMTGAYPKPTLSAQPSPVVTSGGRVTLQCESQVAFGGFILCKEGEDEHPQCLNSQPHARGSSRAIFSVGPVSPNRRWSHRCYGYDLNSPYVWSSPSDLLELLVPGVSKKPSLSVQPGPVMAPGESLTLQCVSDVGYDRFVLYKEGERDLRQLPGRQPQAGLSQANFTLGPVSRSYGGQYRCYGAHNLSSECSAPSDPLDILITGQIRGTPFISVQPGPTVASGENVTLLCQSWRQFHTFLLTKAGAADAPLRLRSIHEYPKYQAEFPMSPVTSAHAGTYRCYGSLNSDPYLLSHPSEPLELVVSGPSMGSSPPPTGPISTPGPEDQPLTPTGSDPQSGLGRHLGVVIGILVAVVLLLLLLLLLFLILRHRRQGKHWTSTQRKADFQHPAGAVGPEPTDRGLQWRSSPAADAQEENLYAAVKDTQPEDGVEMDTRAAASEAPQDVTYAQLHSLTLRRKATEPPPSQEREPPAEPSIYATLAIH

The target in one test is T1, human LILRB1 on CHOK1 cells (human, UniProt Q8NHL6 24-650).
T1 construct: whole, on cells; also called CHOK1-hLILRB1; CHOK1-LILRB1
T1 sequence (Q8NHL6 24-650): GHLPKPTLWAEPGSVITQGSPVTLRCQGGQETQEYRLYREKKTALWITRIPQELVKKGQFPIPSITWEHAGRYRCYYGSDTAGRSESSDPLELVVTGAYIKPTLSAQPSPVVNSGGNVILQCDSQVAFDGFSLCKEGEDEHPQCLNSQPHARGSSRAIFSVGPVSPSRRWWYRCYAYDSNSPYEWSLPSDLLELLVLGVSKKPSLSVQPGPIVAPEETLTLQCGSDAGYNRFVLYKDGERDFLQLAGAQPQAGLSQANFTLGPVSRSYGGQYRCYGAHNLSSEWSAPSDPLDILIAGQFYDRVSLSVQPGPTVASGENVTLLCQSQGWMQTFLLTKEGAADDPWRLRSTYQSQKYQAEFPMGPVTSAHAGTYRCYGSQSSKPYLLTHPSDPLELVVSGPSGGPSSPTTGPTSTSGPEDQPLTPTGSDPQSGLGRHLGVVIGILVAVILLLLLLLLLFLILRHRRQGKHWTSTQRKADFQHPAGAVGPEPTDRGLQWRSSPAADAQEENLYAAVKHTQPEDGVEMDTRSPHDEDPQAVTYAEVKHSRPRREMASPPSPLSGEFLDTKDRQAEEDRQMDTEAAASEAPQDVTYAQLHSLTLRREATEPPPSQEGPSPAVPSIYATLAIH
Description: FACS binding, CHOK1-hLILRB1 cells. On the technique in general: In flow cytometry, cells or beads pass a laser one at a time.
The EC50 is the concentration giving half of the maximal effect. Read a low EC50 as greater potency. In turn, B1 showed a concentration giving a half-maximal response (EC50) of 2.79 nM.
Same read-out and setting: under B2 stands 1.78 nM.
Turning to B3, the binding result is given as “no binding”.
Molecule B4 had an EC50 of 2.01 nM.
Same read-out and setting: the figure for B5 is 1.24 nM; for B6 it is 5 nM; for B7 it is 1.14 nM.
Take B8: a half-maximal response (EC50) required 0.28 nM.
In the case of B9, the EC50 was found to be 1 nM.
On the same count and under the same terms, the figure for B10 is 2.45 nM.
As for B11, the binding result was “no binding”.
The molecule B12 came in with an EC50 of 1.14 nM.
The same measure, in the same setting: the figure for B13 is 1.4 nM; for B14 it is 0.17 nM; for B15 it is 0.97 nM.
The same measure, in the same setting: the figure for B16 is 0.22 nM; for B17 it is 0.22 nM.
In turn, B18 came in with a half-maximal effective concentration (EC50) of 2.51 nM.

The next test has as its target T2, human LILRB2 on CHOK1 cells (human, UniProt Q8N423 22-597).
T2 construct: whole, on cells; also called CHOK1-hLILRB2; CHOK1-LILRB2
The test can be described thus: FACS binding, CHOK1-hLILRB2 cells.
B1: the binding result was “no binding”.
As for B2, the binding result is given as “no binding”.
In the case of B3, the binding result is given as “no binding”.
Molecule B4 yielded an EC50 of 605 nM.
B5: the binding result was “no binding”.
Regarding B6, the binding result was “no binding”.
B7: the binding result is “no binding”.
B8: the binding result is “no binding”.
As to B9, the binding result is “no binding”.
On to B10, for which the binding result is “no binding”.
For the molecule B11, the binding result is “no binding”.
On the same count and under the same terms, the entry for B12 is “no binding”; for B13 it is “no binding”.
With B14, the binding result is on record as “no binding”.
On the same count and under the same terms, the entry for B15 is “no binding”.
For B16, the binding result is “no binding”.
B17: the binding result is given as “no binding”.
Same read-out and setting: under B18 stands “no binding”.

The target of the next test is T1, human LILRB1 on CHOK1 cells. Description: cell-based RBA (FACS): blocking of HLA-G binding to CHOK1-hLILRB1 cells.
As to B7, a half-maximal effect (EC50) was put at 2.08 nM and the “Top Inhibition (%)” value is 87%.
For the molecule B8, the EC50 was determined as 0.44 nM and the “Top Inhibition (%)” value came to 81.9%.
Turning to B9, the half-maximal effective concentration (EC50) worked out at 1.74 nM and the “Top Inhibition (%)” value was determined as 85.9%.
For B12, the EC50 amounted to 2.56 nM and the “Top Inhibition (%)” value was 86.9%.
Turning to B13, a half-maximal effect (EC50) was put at 1.97 nM and the “Top Inhibition (%)” value amounted to 23%.
As to B14, a half-maximal response (EC50) required 0.32 nM and the “Top Inhibition (%)” value was determined as 78%.
B16: it took 0.54 nM to reach a half-maximal effect (EC50) and the “Top Inhibition (%)” value turned out to be 69.7%.
As for B17, the half-maximal effective concentration (EC50) was 0.54 nM and the “Top Inhibition (%)” value worked out at 69.7%.

For the origin of these results see patent publication US20260234247A1 (published 2026).
